From the supplement of paper PMC12042874
± gives the uncertainty stated by the source.

Test: amyloid nucleation score (Sup35N fusion, yeast selection) (log enrichment); library NNK1; higher = more nucleation; inactive = no reads after selection
Summary of the method: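 The nucleation score is the log enrichment of output over input reads, calculated with DiMSum and centred on the mode score of non-aggregating sequences. Sequences with under 100 input reads were excluded. Reads came from Illumina sequencing of plasmid inserts from psi-negative yeast expressing Sup35N fused to peptides of 20 random codons, induced 24 hours with 100 μM copper sulfate and grown 7 days at 30°C without adenine and uracil.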

Substance	amyloid nucleation score
YLPYVSLQSVHWIMVGWLN	-0.163 ± 0.8
YLREVYFFMGVWDRK	0.15 ± 0.44
YLVSTSRWGYLVLTLMWKEG	inactive
YLVVPERLVANRMVS	-1.68 ± 2.4
YLYIRLPVITVRLDWLFGAK	0.464 ± 0.84
YLYVGS	-0.352 ± 0.37
YMEKWAWRVVNESCASVVPP	-0.272 ± 0.89
YMGMLA	2.34 ± 0.12
YMLMKGSVRYH	2.49 ± 0.2
YNDYACRYCFLVGTMD	7.615 ± 0.052
YNFVSCLVYRK	6.9 ± 0.071
YNIVPSADWVSWHGRLTGRR	1.42 ± 0.61
YNKCLCAVLSRMFTGWHISA	0.795 ± 0.88
YNPNGLTMGCGHKYTVEHTT	0.128 ± 0.47
YNSVLVTYYCKFSHTDSDSI	3.04 ± 0.18
YNTSGNTRS	-0.269 ± 0.64
YNVGLLGLFRCYAQKVGLWE	inactive
YNYSRYIRERFWFYT	0.115 ± 0.38
YPAVNRWSLAVFSVRVRLAG	-0.046 ± 0.38
YPGGILIRRVNIKLDGAAIV	-0.869 ± 0.68
YPLINTLDMHRLCRIYCVNE	-0.514 ± 0.54
YPLSLRYQCI	0.2 ± 0.25

Substance	amyloid nucleation score
YPWIFCFEILHYYQLVRLWG	-1.13 ± 0.55
YQDVIPNPVHRYTV	0.371 ± 0.31
YQLTQLGLLS	0.025 ± 0.49
YQVMLRSCLYLLYFSMFNCL	1.27 ± 0.79
YRFSGEGALLASKWLINNCT	-0.224 ± 0.4
YRGMGTTPKFT	0.356 ± 1
YRGYDKREYCSHFFTWDTYG	0.821 ± 0.72
YRNEESVSKSHGCHDMSWFA	0.505 ± 0.54
YRPNLLNSLTPTKTSIGSVY	1.11 ± 0.6
YRPWMRYLTLIGNYRHAGHS	0.633 ± 0.62
YRRDYGPKSVDWRPYVVEVR	0.359 ± 0.64
YRVNWFYMQRCAIP	-0.269 ± 0.86
YSAITNGSFQVLV	0.17 ± 0.21
YSAVISHDVGLFVYLTETET	-0.363 ± 0.56
YSCCRVFMCARWLRVTCNMS	0.189 ± 0.31
YSDWHI	-0.511 ± 0.91
YSEWRSSHNRFMSRPLSTPR	-0.992 ± 0.55
YSFLNYLLTRFDIIFLAAED	inactive
YSGHWPWMQ	-1.17 ± 0.74
YSITIRITEYNGVVSTGLHL	0.325 ± 0.6
YSNLSCSQTDVRSLR	0.494 ± 0.49
YSRSGRTTNLAPNLHLRTMS	0.136 ± 1.2

Substance	amyloid nucleation score
YSTRPKVPFVRKVFIIGL	0.174 ± 0.43
YSVLCIMRTLHAEIWFTGGI	-0.023 ± 1.4
YSYAGSLMAWSRKVHMHTEV	-0.19 ± 0.57
YTANYGILVFAVC	-0.702 ± 1.4
YTFLYSPTHCPRENHPNSVL	0.211 ± 0.61
YTGKRKT	-0.5 ± 0.46
YTHGG	inactive
YTRFN	-1.66 ± 1.6
YTRFVKGYTRNRFSRDTSAV	-0.084 ± 0.28
YTRRVTNDVNNFGTFTRMSS	1.02 ± 0.27
YTSDKGKLYCGLMMG	-0.045 ± 0.59
YTYDLYVTSVLNVSRESSHC	-0.343 ± 1.4
YVAFEKTL	inactive
YVDLFIMPIACGTSVMHLNL	5.464 ± 0.047
YVEPSF	-0.083 ± 0.97
YVEQYLWDSDWSSGI	0.974 ± 0.14
YVFRPLVERDRSLMKLVQQL	inactive
YVGADMELHSRMVTDTYFAS	-0.707 ± 1.1
YVGRNLWK	0.402 ± 0.47
YVIEIMISHVPAIWRGYTCS	0.554 ± 0.71
YVLKCKNILMYEYLNEVKIS	0.219 ± 0.27
YVLYCICV	5.95 ± 0.073

Substance	amyloid nucleation score
YVMAVI	1.64 ± 0.5
YVMSS	-0.369 ± 0.41
YVQLI	-0.256 ± 0.39
YVSAGWVYRSYFGIIFILRN	-0.873 ± 1.1
YVSEEMNGLVMYQSNWGSVT	0.224 ± 0.54
YVSYDQTNSAAYYVRVRLRF	0.947 ± 0.73
YVVCRTFSVPAYSLRLQLRR	0.353 ± 0.26
YVYDSVAVHGGKTLEGEGYG	0.035 ± 0.38
YVYSYLGGARGCVFKEKDPP	0.586 ± 0.47
YWCMLARSLDDEGLFWRTGG	-0.38 ± 0.33
YWGPKDAMGMSFIVSWDGPP	0.367 ± 0.31
YWSFGGWVAQRVCMESVFVK	-2.27 ± 1.6
YWVWYDVYGSWLGSWYYKRG	0.278 ± 0.52
YWVYSSRGCA	inactive
YWWRWSVSI	0.386 ± 0.33
YYAHSGMWYAMSDQKGAVG	0.552 ± 0.67
YYCTQRLNSHSVLMSLADRW	0.035 ± 0.76
YYDFGIIRSCVFSNGCVGMY	1.62 ± 0.8
YYDTEGIHHSSIQRCQIRAG	1.16 ± 0.58
YYQRGVDYNIVFLRT	1.16 ± 0.52
YYVMRYDASLYDKRKERVFG	0.851 ± 0.39
